# Measured values from patent publication US6660715B2, “Nonaqueous solutions and suspensions of macromolecules for pulmonary delivery” (Massachusetts Institute of Technology, priority 1998, dated 2003).
# Tested on: M. lysodeikticus
# Assay: Lysozyme activity after aerosolization from ethanol (standard assay against dried cells of M. lysodeikticus)
# Type: biochemical
# Protocol: […] The reservoir containing the ethanol solution was connected via a plastic tube to a collecting test tube placed in an ice booth to facilitate condensation of the solution. The nebulization was started and continued for 5 minutes. As a result, about one mL of the ethanol solution was collected in the test tube (i.e. was aerosolized). No solution was collected with the nebulizer switched off. The lysozyme activity of the nebulized solution was measured using the standard assay against dried calls of M. lysodeikticus. (Shugar, Biochim. Biophys. Acta 8, 302 (1952)).
substance,measurement,setting,value
lysozyme: hen egg-white lysozyme (a model protein),specific activity of the nebulized solution relative to the initial enzyme solution,"0.1 mg/ml solution in ethanol, compressor nebulizer, 5 minutes","the same, (±10%) as that of the initial enzyme solution"
same,loss of enzymatic activity upon aerosolization,dispersion in ethanol at 1 mg/ml,no appreciable loss of enzymatic activity
same,loss of enzymatic activity upon aerosolization,dispersion in ethanol at 10 mg/ml,no appreciable loss of enzymatic activity
